{
  "source": "paper PMC9226502",
  "about": "“MutL binds to 3′ resected DNA ends and blocks DNA polymerase access”",
  "key": {"MutL H270A+H319A": {"target": "MutL H270A+H319A (Escherichia coli, UniProt P23367 1-615, H270A;H319A)", "assay": "fluorescence anisotropy; AMPPNP (1 mM, Fig 3C); FA: 20 mM HEPES pH 7.5, 150 mM NaCl, 5 mM MgCl2, 0.08% Tween 20, 20% glycerol, 2 mM DTT, 5 nM DNA, 25 C; BLI: 25 mM HEPES pH 7.5, 150 mM NaCl, 5 mM MgCl2, 2 mM", "conditions": "protein: recombinant; (HisTrap purified); chain copies: 2; label: 5'-FAM on primer S8; 15 bp duplex, 5' overhang 16 nt on template (recessed primer 3' end)"}, "MutL H319A": {"target": "MutL H319A (Escherichia coli, UniProt P23367 1-615, H319A)", "assay": "fluorescence anisotropy; AMPPNP (1 mM, Fig 3C); FA: 20 mM HEPES pH 7.5, 150 mM NaCl, 5 mM MgCl2, 0.08% Tween 20, 20% glycerol, 2 mM DTT, 5 nM DNA, 25 C; BLI: 25 mM HEPES pH 7.5, 150 mM NaCl, 5 mM MgCl2, 2 mM", "conditions": "protein: recombinant; (HisTrap purified); chain copies: 2; label: 5'-FAM on primer S8; 15 bp duplex, 5' overhang 16 nt on template (recessed primer 3' end)"}, "MutL H270A": {"target": "MutL H270A (Escherichia coli, UniProt P23367 1-615, H270A)", "assay": "fluorescence anisotropy; AMPPNP (1 mM, Fig 3C); FA: 20 mM HEPES pH 7.5, 150 mM NaCl, 5 mM MgCl2, 0.08% Tween 20, 20% glycerol, 2 mM DTT, 5 nM DNA, 25 C; BLI: 25 mM HEPES pH 7.5, 150 mM NaCl, 5 mM MgCl2, 2 mM", "conditions": "protein: recombinant; (HisTrap purified); chain copies: 2; label: 5'-FAM on primer S8; 15 bp duplex, 5' overhang 16 nt on template (recessed primer 3' end)"}, "MutL WT [1]": {"target": "T1, MutL WT (Escherichia coli, UniProt P23367 1-615)", "assay": "fluorescence anisotropy; AMPPNP (3 mM; Fig 3C legend 1 mM); FA: 20 mM HEPES pH 7.5, 150 mM NaCl, 5 mM MgCl2, 0.08% Tween 20, 20% glycerol, 2 mM DTT, 5 nM DNA, 25 C; BLI: 25 mM HEPES pH 7.5, 150 mM NaCl, 5 mM MgCl2, 2 mM", "conditions": "protein: recombinant; (HisTrap purified); chain copies: 2; label: 5'-FAM on primer S8; 15 bp duplex, 5' overhang 16 nt on template (recessed primer 3' end)"}, "MutL WT [2]": {"target": "T1, MutL WT", "assay": "fluorescence anisotropy; 3 mM ATP (Table 2 gives 0.64 uM); FA: 20 mM HEPES pH 7.5, 150 mM NaCl, 5 mM MgCl2, 0.08% Tween 20, 20% glycerol, 2 mM DTT, 5 nM DNA, 25 C; BLI: 25 mM HEPES pH 7.5, 150 mM NaCl, 5 mM MgCl2, 2 mM", "conditions": "protein: recombinant; (HisTrap purified); chain copies: 2; label: 5'-FAM on primer S8; 15 bp duplex, 5' overhang 16 nt on template (recessed primer 3' end)"}, "MutL WT [3]": {"target": "T1, MutL WT", "assay": "fluorescence anisotropy; 3 mM ATP; FA: 20 mM HEPES pH 7.5, 150 mM NaCl, 5 mM MgCl2, 0.08% Tween 20, 20% glycerol, 2 mM DTT, 5 nM DNA, 25 C; BLI: 25 mM HEPES pH 7.5, 150 mM NaCl, 5 mM MgCl2, 2 mM", "conditions": "protein: recombinant, (HisTrap purified), chain copies: 2"}, "MutL WT [4]": {"target": "T1, MutL WT", "assay": "cryo-EM structure (3.7 A); 3 mM AMPPNP, 5 mM Mg2+; FA: 20 mM HEPES pH 7.5, 150 mM NaCl, 5 mM MgCl2, 0.08% Tween 20, 20% glycerol, 2 mM DTT, 5 nM DNA, 25 C; BLI: 25 mM HEPES pH 7.5, 150 mM NaCl, 5 mM MgCl2, 2 mM", "conditions": "protein: recombinant; (HisTrap purified); chain copies: 2; 21 bp duplex, 5' overhang 21 nt on template"}},
  "data": [
    {"binder": "3' resected primer/template junction (dsDNA) DNA 1: AAGTGTCTGTCGTTTTAAGGACGAAGGACTC DNA 2: GAGTCCTTCGTCCTT", "values": [
      {"measurement": "binding result", "setting": "MutL H270A+H319A", "value": "no binding"},
      {"measurement": "Kd", "setting": "MutL H319A", "value": "4510 ± 1180", "unit": "nM"},
      {"measurement": "Kd", "setting": "MutL H270A", "value": "1590 ± 230", "unit": "nM"},
      {"measurement": "Kd", "setting": "MutL WT [1]", "value": "290 ± 120", "unit": "nM"},
      {"measurement": "Kd", "setting": "MutL WT [2]", "value": "650 ± 320", "unit": "nM"}
    ]},
    {"binder": "blunt-ended DNA (dsDNA) DNA 1: AAGTGTCTGTCGTTTT DNA 2: AAAACGACAGACACTT", "values": [
      {"measurement": "binding result", "setting": "MutL WT [3]; label: 3'-FAM on S7", "value": "no binding"}
    ]},
    {"binder": "cryo-EM 3' resected DNA (dsDNA) DNA 1: AAACAGGCTTAGGCTGGAGGATCAGCTTAGCTTAGAGTCATC DNA 2: GATGACTCTAAGCTAAGCTGA", "values": [
      {"measurement": "binding result", "setting": "MutL WT [4]", "value": "binds"}
    ]},
    {"binder": "5' resected primer/template junction (dsDNA) DNA 1: AAGTGTCTGTCGTTTTAAGGACGAAGGACTC DNA 2: AAAACGACAGACACTT", "values": [
      {"measurement": "binding result", "setting": "MutL WT [3]; label: 3'-FAM on primer S7", "value": "no binding"}
    ]}
  ]
}
